In the supplement of paper PMC5998384:

What was measured:
HeLa Kyoto [1] = assay: solubility in G1/S (NP-40 vs SDS abundance) (log2 ratio); higher = more soluble; conditions: cell cycle stage: G1/S
HeLa Kyoto [2] = assay: melting temperature (median over replicates), in situ; higher = more thermally stable
HeLa Kyoto [3] = assay: solubility change mitosis vs G1/S (difference of NP-40 vs SDS log2 ratios) (log2 ratio difference); higher = more soluble in mitosis
HeLa Kyoto [4] = assay: thermal stability score vs G1/S (z-score of summed log2 fold changes over temperatures); higher = more thermally stable than in G1/S
[5] = cell cycle stage: early G1 (4.5 h after nocodazole release)
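Wherever melting temperature (median over replicates), in situ is given: HeLa Kyoto cells synchronized by double thymidine or nocodazole block, proteins quantified by TMT10plex mass spectrometry, three independent biological replicates.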
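Wherever solubility change mitosis vs G1/S (difference of NP-40 vs SDS log2 ratios) is given: synchronized HeLa Kyoto cells (double thymidine block for G1/S, nocodazole release for mitosis), protein amounts in NP-40 versus SDS lysates quantified by mass spectrometry, three biological replicates.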
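Wherever solubility in G1/S (NP-40 vs SDS abundance) is given: HeLa Kyoto cells arrested at G1/S by double thymidine block, proteins quantified by TMT10plex mass spectrometry in mild NP-40 versus SDS extracts, three biological replicates.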
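Wherever thermal stability score vs G1/S (z-score of summed log2 fold changes over temperatures) is given: synchronized HeLa Kyoto cells, proteins quantified by TMT10plex mass spectrometry, three biological replicates, mitosis taken 0.5 h after nocodazole release, G1/S directly after double thymidine block.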

Sequence of GALNT2 (chain, as listed by the source): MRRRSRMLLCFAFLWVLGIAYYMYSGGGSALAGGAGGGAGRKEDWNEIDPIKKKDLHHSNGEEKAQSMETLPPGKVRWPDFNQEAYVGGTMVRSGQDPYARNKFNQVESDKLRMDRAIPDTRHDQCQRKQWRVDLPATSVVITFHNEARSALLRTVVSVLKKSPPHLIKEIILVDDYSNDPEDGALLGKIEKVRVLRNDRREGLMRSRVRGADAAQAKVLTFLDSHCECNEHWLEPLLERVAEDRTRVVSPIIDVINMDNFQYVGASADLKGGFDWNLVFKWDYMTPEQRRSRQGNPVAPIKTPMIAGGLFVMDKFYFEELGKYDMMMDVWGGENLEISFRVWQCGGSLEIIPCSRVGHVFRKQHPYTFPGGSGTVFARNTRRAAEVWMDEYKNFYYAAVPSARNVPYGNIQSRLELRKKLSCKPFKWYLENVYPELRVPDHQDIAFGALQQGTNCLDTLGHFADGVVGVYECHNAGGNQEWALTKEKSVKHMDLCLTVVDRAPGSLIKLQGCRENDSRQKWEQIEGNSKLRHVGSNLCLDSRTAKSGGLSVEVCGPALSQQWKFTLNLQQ

Substance	solubility in G1/S (log2) (HeLa Kyoto [1])	melting temperature (HeLa Kyoto [2]; cell cycle stage: G1/S) [°C]	melting temperature (HeLa Kyoto [2]; cell cycle stage: mitosis) [°C]	solubility change mitosis (log2) (HeLa Kyoto [3])	thermal stability score (HeLa Kyoto [4]; [5])	thermal stability score (HeLa Kyoto [4]; cell cycle stage: mitosis)
MKLKLNVLTIILLPVHLLITIYSALIFIPWYFLTNAKKKNAMAKRIKAKPTSDKPGSPYRSVTHFDSLAVIDIPGADTLDKLFDHAVSKFGKKDSLGTREILSEENEMQPNGKVFKKLILGNYKWMNYLEVNRRVNNFGSGLTALGLKPKNTIAIFCETRAEWMIAAQTCFKYNFPLVTLYATLGKEAVVHGLNESEASYLITSVELLESKLKTALLDISCVKHIIYVDNKAINKAEYPEGFEIHSMQSVEELGSNPENLGIPPSRPTPSDMAIVMYTSGSTGRPKGVMMHHSNLIAGMTGQCERIPGLGPKDTYIGYLPLAHVLELTAEISCFTYGCRIGYSSPLTLSDQSSKIKKGSKGDCTVLKPTLMAAVPEIMDRIYKNVMSKVQEMNYIQKTLFKIGYDYKLEQIKKGYDAPLCNLLLFKKVKALLGGNVRMMLSGGAPLSPQTHRFMNVCFCCPIGQGYGLTESCGAGTVTEVTDYTTGRVGAPLICCEIKLKDWQEGGYTINDKPNPRGEIVIGGQNISMGYFKNEEKTAEDYSVDENGQRWFCTGDIGEFHPDGCLQIIDRKKDLVKLQAGEYVSLGKVEAALKNCPLIDNICAFAKSDQSYVISFVVPNQKRLTLLAQQKGVEGTWVDICNNPAMEAEILKEIREAANAMKLERFEIPIKVRLSPEPWTPETGLVTDAFKLKRKELRNHYLKDIERMYGGK [ACSL4]	-0.0428	48.8	48.7	-0.157	1.35	2.2
MTVARPSVPAALPLLGELPRLLLLVLLCLPAVWGDCGLPPDVPNAQPALEGRTSFPEDTVITYKCEESFVKIPGEKDSVICLKGSQWSDIEEFCNRSCEVPTRLNSASLKQPYITQNYFPVGTVVEYECRPGYRREPSLSPKLTCLQNLKWSTAVEFCKKKSCPNPGEIRNGQIDVPGGILFGATISFSCNTGYKLFGSTSSFCLISGSSVQWSDPLPECREIYCPAPPQIDNGIIQGERDHYGYRQSVTYACNKGFTMIGEHSIYCTVNNDEGEWSGPPPECRGKSLTSKVPPTVQKPTTVNVPTTEVSPTSQKTTTKTTTPNAQATRSTPVSRTTKHFHETTPNKGSGTTSGTTRLLSGHTCFTLTGLLGTLVTMGLLT [CD55]	-0.786	63.5	63.9	-0.0285	-1.88	-1.77
GALNT2	-0.0412	51.6	52	-0.0991	9.37	17.4
MAVETLSPDWEFDRVDDGSQKIHAEVQLKNYGKFLEEYTSQLRRIEDALDDSIGDVWDFNLDPIALKLLPYEQSSLLELIKTENKVLNKVITVYAALCCEIKKLKYEAETKFYNGLLFYGEGATDASMVEGDCQIQMGRFISFLQELSCFVTRCYEVVMNVVHQLAALYISNKIAPKIIETTGVHFQTMYEHLGELLTVLLTLDEIIDNHITLKDHWTMYKRLLKSVHHNPSKFGIQEEKLKPFEKFLLKLEGQLLDGMIFQACIEQQFDSLNGGVSVSKNSTFAEEFAHSIRSIFANVEAKLGEPSEIDQRDKYVGICGLFVLHFQIFRTIDKKFYKSLLDICKKVPAITLTANIIWFPDNFLIQKIPAAAKLLDRKSLQAIKIHRDTFLQQKAQSLTKDVQSYYVFVSSWMMKMESILSKEQRMDKFAEDLTNRCNVFIQGFLYAYSISTIIKTTMNLYMSMQKPMTKTSVKALCRLVELLKAIEHMFYRRSMVVADSVSHITQHLQHQALHSISVAKKRVISDKKYSEQRLDVLSALVLAENTLNGPSTKQRRLIVSLALSVGTQMKTFKDEELFPLQVVMKKLDLISELRERVQTQCDCCFLYWHRAVFPIYLDDVYENAVDAARLHYMFSALRDCVPAMMHARHLESYEILLDCYDKEIMEILNEHLLDKLCKEIEKDLRLSVHTHLKLDDRNPFKVGMKDLALFFSLNPIRFFNRFIDIRAYVTHYLDKTFYNLTTVALHDWATYSEMRNLATQRYGLVMTEAHLPSQTLEQGLDVLEIMRNIHIFVSRYLYNLNNQIFIERTSNNKHLNTINIRHIANSIRTHGTGIMNTTVNFTYQFLKKKFYIFSQFMYDEHIKSRLIKDIRFFREIKDQNDHKYPFDRAEKFNRGIRKLGVTPEGQSYLDQFRQLISQIGNAMGYVRMIRSGGLHCSSNAIRFVPDLEDIVNFEELVKEEGLAEETLKAARHLDSVLSDHTRNSAEGTEYFKMLVDVFAPEFRRPKNIHLRNFYIIVPPLTLNFVEHSISCKEKLNKKNKIGAAFTDDGFAMGVAYILKLLDQYREFDSLHWFQSVREKYLKEIRAVAKQQNVQSASQDEKLLQTMNLTQKRLDVYLQEFELLYFSLSSARIFFRADKTAAEENQEKKEKEEETKTSNGDLSDSTVSADPVVK [KIAA1033]	-0.393	49.7	49.7	-0.0953	0.475	0.963
MAARLVSRCGAVRAAPHSGPLVSWRRWSGASTDTVYDVVVSGGGLVGAAMACALGYDIHFHDKKILLLEAGPKKVLEKLSETYSNRVSSISPGSATLLSSFGAWDHICNMRYRAFRRMQVWDACSEALIMFDKDNLDDMGYIVENDVIMHALTKQLEAVSDRVTVLYRSKAIRYTWPCPFPMADSSPWVHITLGDGSTFQTKLLIGADGHNSGVRQAVGIQNVSWNYDQSAVVATLHLSEATENNVAWQRFLPSGPIALLPLSDTLSSLVWSTSHEHAAELVSMDEEKFVDAVNSAFWSDADHTDFIDTAGAMLQYAVSLLKPTKVSARQLPPSVARVDAKSRVLFPLGLGHAAEYVRPRVALIGDAAHRVHPLAGQGVNMGFGDISSLAHHLSTAAFNGKDLGSVSHLTGYETERQRHNTALLAATDLLKRLYSTSASPLVLLRTWGLQATNAVSPLKEQIMAFASK [COQ6]	-0.0254	54.8	55.1	-0.0137	1.7	2.05
MNTVLSRANSLFAFSLSVMAALTFGCFITTAFKDRSVPVRLHVSRIMLKNVEDFTGPRERSDLGFITFDITADLENIFDWNVKQLFLYLSAEYSTKNNALNQVVLWDKIVLRGDNPKLLLKDMKTKYFFFDDGNGLKGNRNVTLTLSWNVVPNAGILPLVTGSGHVSVPFPDTYEITKSY [SPCS3]	0.0331	53.5	53.8	-0.0576	0.503	1.67
MFAKATRNFLREVDADGDLIAVSNLNDSDKLQLLSLVTKKKRFWCWQRPKYQFLSLTLGDVLIEDQFPSPVVVESDFVKYEGKFANHVSGTLETALGKVKLNLGGSSRVESQSSFGTLRKQEVDLQQLIRDSAERTINLRNPVLQQVLEGRNEVLCVLTQKITTMQKCVISEHMQVEEKCGGIVGIQTKTVQVSATEDGNVTKDSNVVLEIPAATTIAYGVIELYVKLDGQFEFCLLRGKQGGFENKKRIDSVYLDPLVFREFAFIDMPDAAHGISSQDGPLSVLKQATLLLERNFHPFAELPEPQQTALSDIFQAVLFDDELLMVLEPVCDDLVSGLSPTVAVLGELKPRQQQDLVAFLQLVGCSLQGGCPGPEDAGSKQLFMTAYFLVSALAEMPDSAAALLGTCCKLQIIPTLCHLLRALSDDGVSDLEDPTLTPLKDTERFGIVQRLFASADISLERLKSSVKAVILKDSKVFPLLLCITLNGLCALGREHS [DFNA5]	-0.0213	52.8	53.7	-0.126	1.33	2.07
MVGEEKMSLRNRLSKSRENPEEDEDQRNPAKESLETPSNGRIDIKQLIAKKIKLTAEAEELKPFFMKEVGSHFDDFVTNLIEKSASLDNGGCALTTFSVLEGEKNNHRAKDLRAPPEQGKIFIARRSLLDELLEVDHIRTIYHMFIALLILFILSTLVVDYIDEGRLVLEFSLLSYAFGKFPTVVWTWWIMFLSTFSVPYFLFQHWATGYSKSSHPLIRSLFHGFLFMIFQIGVLGFGPTYVVLAYTLPPASRFIIIFEQIRFVMKAHSFVRENVPRVLNSAKEKSSTVPIPTVNQYLYFLFAPTLIYRDSYPRNPTVRWGYVAMKFAQVFGCFFYVYYIFERLCAPLFRNIKQEPFSARVLVLCVFNSILPGVLILFLTFFAFLHCWLNAFAEMLRFGDRMFYKDWWNSTSYSNYYRTWNVVVHDWLYYYAYKDFLWFFSKRFKSAAMLAVFAVSAVVHEYALAVCLSFFYPVLFVLFMFFGMAFNFIVNDSRKKPIWNVLMWTSLFLGNGVLLCFYSQEWYARQHCPLKNPTFLDYVRPRSWTCRYVF [SOAT1]	-0.292	52.2	52	-0.0778	0.192	0.0734
MAMVSEFLKQAWFIENEEQEYVQTVKSSKGGPGSAVSPYPTFNPSSDVAALHKAIMVKGVDEATIIDILTKRNNAQRQQIKAAYLQETGKPLDETLKKALTGHLEEVVLALLKTPAQFDADELRAAMKGLGTDEDTLIEILASRTNKEIRDINRVYREELKRDLAKDITSDTSGDFRNALLSLAKGDRSEDFGVNEDLADSDARALYEAGERRKGTDVNVFNTILTTRSYPQLRRVFQKYTKYSKHDMNKVLDLELKGDIEKCLTAIVKCATSKPAFFAEKLHQAMKGVGTRHKALIRIMVSRSEIDMNDIKAFYQKMYGISLCQAILDETKGDYEKILVALCGGN [ANXA1]	0.618	49.1	49.6	0.0587	3.41	3.05
MLHLSAAPPAPPPEVTATARPCLCSVGRRGDGGKMAAAGALERSFVELSGAERERPRHFREFTVCSIGTANAVAGAVKYSESAGGFYYVESGKLFSVTRNRFIHWKTSGDTLELMEESLDINLLNNAIRLKFQNCSVLPGGVYVSETQNRVIILMLTNQTVHRLLLPHPSRMYRSELVVDSQMQSIFTDIGKVDFTDPCNYQLIPAVPGISPNSTASTAWLSSDGEALFALPCASGGIFVLKLPPYDIPGMVSVVELKQSSVMQRLLTGWMPTAIRGDQSPSDRPLSLAVHCVEHDAFIFALCQDHKLRMWSYKEQMCLMVADMLEYVPVKKDLRLTAGTGHKLRLAYSPTMGLYLGIYMHAPKRGQFCIFQLVSTESNRYSLDHISSLFTSQETLIDFALTSTDIWALWHDAENQTVVKYINFEHNVAGQWNPVFMQPLPEEEIVIRDDQDPREMYLQSLFTPGQFTNEALCKALQIFCRGTERNLDLSWSELKKEVTLAVENELQGSVTEYEFSQEEFRNLQQEFWCKFYACCLQYQEALSHPLALHLNPHTNMVCLLKKGYLSFLIPSSLVDHLYLLPYENLLTEDETTISDDVDIARDVICLIKCLRLIEESVTVDMSVIMEMSCYNLQSPEKAAEQILEDMITIDVENVMEDICSKLQEIRNPIHAIGLLIREMDYETEVEMEKGFNPAQPLNIRMNLTQLYGSNTAGYIVCRGVHKIASTRFLICRDLLILQQLLMRLGDAVIWGTGQLFQAQQDLLHRTAPLLLSYYLIKWGSECLATDVPLDTLESNLQHLSVLELTDSGALMANRFVSSPQTIVELFFQEVARKHIISHLFSQPKAPLSQTGLNWPEMITAITSYLLQLLWPSNPGCLFLECLMGNCQYVQLQDYIQLLHPWCQVNVGSCRFMLGRCYLVTGEGQKALECFCQAASEVGKEEFLDRLIRSEDGEIVSTPRLQYYDKVLRLLDVIGLPELVIQLATSAITEAGDDWKSQATLRTCIFKHHLDLGHNSQAYEALTQIPDSSRQLDCLRQLVVVLCERSQLQDLVEFPYVNLHNEVVGIIESRARAVDLMTHNYYELLYAFHIYRHNYRKAGTVMFEYGMRLGREVRTLRGLEKQGNCYLAALNCLRLIRPEYAWIVQPVSGAVYDRPGASPKRNHDGECTAAPTNRQIEILELEDLEKECSLARIRLTLAQHDPSAVAVAGSSSAEEMVTLLVQAGLFDTAISLCQTFKLPLTPVFEGLAFKCIKLQFGGEAAQAEAWAWLAANQLSSVITTKESSATDEAWRLLSTYLERYKVQNNLYHHCVINKLLSHGVPLPNWLINSYKKVDAAELLRLYLNYDLLEEAVDLVSEYVDAVLGKGHQYFGIEFPLSATAPMVWLPYSSIDQLLQALGENSANSHNIALSQKILDKLEDYQQKVDKATRDLLYRRTL [NUP160]	-0.58	52.1	49.4	0.135	-3.22	-3.66
